Substrate in data set [1]: O=C(/C=C/c1ccc(O)cc1)c1c(O)cc(O)cc1O
Briefly: steady-state kinetics (Km). It is filed as biochemical, Sorghum bicolor.

Substrate in data set [2]: O=C(/C=C/c1ccc(O)cc1)c1ccc(O)cc1O
As to the kind of experiment: steady-state kinetics (Km). The format is biochemical, Sorghum bicolor.

Substrate in the data set “purified protein”: O=C(/C=C/c1ccc(O)cc1)c1c(O)cc(O)cc1O
As to the kind of experiment: purified protein. It is filed as biochemical, Panicum virgatum.

Substrate in data set [3]: CC(C)(COP(=O)(O)OP(=O)(O)OC[C@H]1O[C@@H](n2cnc3c(N)ncnc32)[C@H](O)[C@@H]1OP(=O)(O)O)[C@@H](O)C(=O)NCCC(=O)NCCSC(=O)/C=C/c1ccc(O)cc1
Briefly: steady-state kinetics, LC-MS/MS (Km). It is filed as biochemical, Panicum virgatum. As to conditions: malonyl-CoA (co-substrate).

B1: SbCHI (chalcone isomerase, Bmr30) (Sorghum bicolor) (protein)
chain: MAVPEVVVEGVVFPPVARPPGSAGSHFLGGAGVRGIEIGGNFIKFTAIGVYLEDAAVSALAKKWAGKTADELASDAAFFRDVVTGDFEKFTRVTMLLPLTGEQYAGKVTENCVAFWKAVGLYTDAEGVAVEKFKEAFKPETFPPGASILFTHSSTGVLTVAFSKDSSVPASGGVAIENKHLCEAVLESIIGEHGVSPAAKLSLAARVSELLTKGTAGAADAPQAEPVSVTA
notes: recombinant SbCHI
In the case of B1, in data set [1], the Michaelis constant (Km) was determined as 16.55 ± 2.08 µM, the catalytic constant (kcat) was determined as 2890 ± 144 s⁻¹ and the kcat/Km was determined as 1.74e+08 M⁻¹ s⁻¹. In addition, in data set [2], the Michaelis-Menten constant (Km) is 1.585 ± 0.929 µM, the kcat amounted to 0.239 ± 0.0274 s⁻¹ and the specificity constant (kcat/Km) amounted to 151000 M⁻¹ s⁻¹.

B2: PvCHI (chalcone isomerase) (Panicum virgatum) (protein)
chain: MAAVSEVAVDGVVFPPVARPPGSGRSHFLAGAGVRGMEIGGNFIKFTAIGVYLEEGAAVSALAKKWAGKSADELAADAAFFRDVVTGDFEKFTRVTMILPLTGEQYSGKVTENCVAYWKAVGVYTDAEGAAVDKFKEAFKPETFPPGASILFTHSPAGVLTVAFSKDSSVPESGGVAIDNKPLCEAVLESIIGEHGVSPAAKLSVAARVSELLKEASPAGGAPQAAAEPAVPVSA
notes: recombinant, N-terminal 6×-His tag
For the protein B2, in “purified protein”, the Km came out at 16.04 ± 6.28 µM, the kcat came out at 8010 ± 1180 s⁻¹ and the kcat/Km worked out at 5e+08 M⁻¹ s⁻¹.

B3: PvCHS (chalcone synthase) (Panicum virgatum) (protein)
chain: MAGAAAAVTVEEVRKAQRASGPATVLAIGTATPANCVHQADYPDYYFRVTKSDHLTDLKEKFKRMCDKSMIRKRYMHLTEEFLAENPNMCAYMAPSLDARQDIVVVEVPKLGKAAAQKALKEWGQPRSRITHLVFCTTSGVDMPGADYQLTKLLGLRPSVNRLMMYQQGCFAGGTVLRVAKDLAENNRGARVLVVCSEITAVTFRGPSESHLDSLVGQALFGDGAAAVIVGADPDERAERPLFQLVSAAQTLLPDSEGAIDGHLREVGLTFHLLKDVPGLISKNIERALEAAFAPLGISDWNSIFWVAHPGGPAILDQVEAKVSLDKARMRATRHVLAEYGNMSSACVLFILDEMRKRSAEDGCATTGEGLDWGVLFGFGPGLTVETVVLHSVPITAGAAAA
notes: as for B2
For the protein B3, in data set [3], the Michaelis constant (Km) was determined as 0.1303 ± 0.0319 µM, the kcat was determined as 0.00695 ± 0.00077 s⁻¹ and the kcat/Km is 53300 M⁻¹ s⁻¹.

Values taken from PMC11172311, “Structural and Interactional Analysis of the Flavonoid Pathway Proteins: Chalcone Synthase, Chalcone Isomerase and Chalcone Isomerase-like Protein” (International Journal of Molecular Sciences, 2024).
